System: Escherichia coli TOP10
Assay: shrunken log2 fold change of peptide-encoding DNA abundance (4.5 h post-induction vs induction); higher = less antimicrobial activity (less host growth inhibition)
Details: time post-induction: 4.5 h; library: site-saturation at positions 5, 18, 19, 20
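Note: peptides expressed intracellularly from a pBAD plasmid library in pooled LB shake-flask culture, induced with 0.3% L-arabinose, DNA abundance read by NGS, three biological replicates, DESeq2 with apeglm shrinkage.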

Sequence	shrunken log2 fold change
RRIRVRPPRLPRPRPRPWSGPRP	-0.507
RRIRWRPPRLPRPRPRPSNYPRP	-0.707
RRIRCRPPRLPRPRPRPYQTPRP	-0.0384
RRIRKRPPRLPRPRPRPPRCPRP	0.578
RRIRMRPPRLPRPRPRPLCKPRP	0.206
RRIRGRPPRLPRPRPRPVDKPRP	0.319
RRIRHRPPRLPRPRPRPNSTPRP	-1.48
RRIRGRPPRLPRPRPRPIKVPRP	0.356
RRIRHRPPRLPRPRPRPMKDPRP	-0.778
RRIRHRPPRLPRPRPRPIFNPRP	-0.447
RRIRYRPPRLPRPRPRPENHPRP	-0.552
RRIRHRPPRLPRPRPRPFKWPRP	-0.0376
RRIRDRPPRLPRPRPRPRHQPRP	0.0533
RRIRNRPPRLPRPRPRPKCAPRP	0.243
RRIRCRPPRLPRPRPRPCDVPRP	-0.0285
RRIRLRPPRLPRPRPRPTIQPRP	-0.0934
RRIRWRPPRLPRPRPRPKRNPRP	0.432
RRIRKRPPRLPRPRPRPAWMPRP	0.212
RRIRWRPPRLPRPRPRPGELPRP	0.532
RRIRNRPPRLPRPRPRPEAFPRP	0.0792
RRIRSRPPRLPRPRPRPEPHPRP	0.0658
RRIRIRPPRLPRPRPRPKPAPRP	0.243
RRIRFRPPRLPRPRPRPVIEPRP	-0.161

Sequence	shrunken log2 fold change
RRIRTRPPRLPRPRPRPHDPPRP	-0.283
RRIRFRPPRLPRPRPRPPRHPRP	0.411
RRIRDRPPRLPRPRPRPATTPRP	0.163
RRIRPRPPRLPRPRPRPWNTPRP	-0.0902
RRIRARPPRLPRPRPRPKMIPRP	-0.0208
RRIRPRPPRLPRPRPRPYPCPRP	-0.134
RRIRRRPPRLPRPRPRPNCAPRP	0.32
RRIRHRPPRLPRPRPRPMSVPRP	-0.294
RRIRIRPPRLPRPRPRPHMLPRP	-0.943
RRIRMRPPRLPRPRPRPDTCPRP	1.25
RRIRFRPPRLPRPRPRPVIVPRP	-0.997
RRIRARPPRLPRPRPRPYDTPRP	-0.0699
RRIRHRPPRLPRPRPRPRMRPRP	0.39
RRIRARPPRLPRPRPRPEAPPRP	1.11
RRIRYRPPRLPRPRPRPDLCPRP	0.0404
RRIRWRPPRLPRPRPRPSGVPRP	-0.158
RRIRYRPPRLPRPRPRPRFPPRP	-0.448
RRIRWRPPRLPRPRPRPYMRPRP	0.0516
RRIRMRPPRLPRPRPRPHERPRP	1.04
RRIRYRPPRLPRPRPRPSFCPRP	-0.793
RRIRERPPRLPRPRPRPPYRPRP	0.0947
RRIRWRPPRLPRPRPRPFYFPRP	0.0389
RRIRFRPPRLPRPRPRPRGCPRP	0.433

Sequence	shrunken log2 fold change
RRIRRRPPRLPRPRPRPFLLPRP	0.0441
RRIRQRPPRLPRPRPRPHPQPRP	0.24
RRIRMRPPRLPRPRPRPKGMPRP	1.37
RRIRFRPPRLPRPRPRPHTAPRP	-0.337
RRIRQRPPRLPRPRPRPNHCPRP	-0.0615
RRIRMRPPRLPRPRPRPIKVPRP	-0.149
RRIRKRPPRLPRPRPRPFHKPRP	-0.00277
RRIRLRPPRLPRPRPRPSFLPRP	-0.562
RRIRCRPPRLPRPRPRPYVMPRP	-0.633
RRIRKRPPRLPRPRPRPRVTPRP	0.138
RRIRWRPPRLPRPRPRPRFMPRP	-0.17
RRIRSRPPRLPRPRPRPHSHPRP	-0.282
RRIRRRPPRLPRPRPRPLENPRP	0.194
RRIRCRPPRLPRPRPRPHLNPRP	-0.627
RRIRQRPPRLPRPRPRPMVQPRP	-0.00171
RRIRLRPPRLPRPRPRPDWDPRP	-0.183
RRIRDRPPRLPRPRPRPGIPPRP	0.016
RRIRSRPPRLPRPRPRPFFNPRP	0.00333
RRIRKRPPRLPRPRPRPRDTPRP	0.258
RRIRKRPPRLPRPRPRPYKRPRP	-0.338
RRIRIRPPRLPRPRPRPTTDPRP	-0.0551
RRIRQRPPRLPRPRPRPTFHPRP	0.199
RRIRQRPPRLPRPRPRPWRYPRP	0.0785

Sequence	shrunken log2 fold change
RRIRYRPPRLPRPRPRPCFYPRP	-0.909
RRIRNRPPRLPRPRPRPIFTPRP	-0.424
RRIRYRPPRLPRPRPRPTEHPRP	-0.501
RRIRARPPRLPRPRPRPHQRPRP	0.0964
RRIRDRPPRLPRPRPRPILEPRP	-0.0842
RRIRLRPPRLPRPRPRPQAQPRP	0.0698
RRIRVRPPRLPRPRPRPQQQPRP	0.0503
RRIRWRPPRLPRPRPRPMGQPRP	0.0149
RRIRKRPPRLPRPRPRPDCVPRP	0.342
RRIRLRPPRLPRPRPRPPKCPRP	0.213
RRIRNRPPRLPRPRPRPYGVPRP	-0.00804
RRIRHRPPRLPRPRPRPEQFPRP	0.000995
RRIRLRPPRLPRPRPRPAQMPRP	0.122
RRIRNRPPRLPRPRPRPNGVPRP	-0.0397
RRIRFRPPRLPRPRPRPKSHPRP	-0.506
RRIRTRPPRLPRPRPRPFTQPRP	-0.487
RRIRQRPPRLPRPRPRPFIRPRP	-0.00448
RRIRERPPRLPRPRPRPYQPPRP	0.0223
RRIRCRPPRLPRPRPRPDMDPRP	-0.00476
RRIRRRPPRLPRPRPRPSRVPRP	0.553
RRIRTRPPRLPRPRPRPSPLPRP	-0.335
RRIRKRPPRLPRPRPRPLNRPRP	-0.0492

Source: the supplement of paper PMC9112550, “Optimization of the antimicrobial peptide Bac7 by deep mutational scanning” (BMC Biology, 2022)
